Experimental findings from patent US20240076386A1 (Pfizer, published 2024) are described below.

For assay [1], the target named is T1, cynomolgus monkey E-selectin, cell-surface expressed (cynomolgus monkey, UniProt P16581 22-610 (human entry)).
T1 construct: also called CHO-cynomolgus monkey E-selectin cells; cynomolgus monkey CHO-E
T1 chain: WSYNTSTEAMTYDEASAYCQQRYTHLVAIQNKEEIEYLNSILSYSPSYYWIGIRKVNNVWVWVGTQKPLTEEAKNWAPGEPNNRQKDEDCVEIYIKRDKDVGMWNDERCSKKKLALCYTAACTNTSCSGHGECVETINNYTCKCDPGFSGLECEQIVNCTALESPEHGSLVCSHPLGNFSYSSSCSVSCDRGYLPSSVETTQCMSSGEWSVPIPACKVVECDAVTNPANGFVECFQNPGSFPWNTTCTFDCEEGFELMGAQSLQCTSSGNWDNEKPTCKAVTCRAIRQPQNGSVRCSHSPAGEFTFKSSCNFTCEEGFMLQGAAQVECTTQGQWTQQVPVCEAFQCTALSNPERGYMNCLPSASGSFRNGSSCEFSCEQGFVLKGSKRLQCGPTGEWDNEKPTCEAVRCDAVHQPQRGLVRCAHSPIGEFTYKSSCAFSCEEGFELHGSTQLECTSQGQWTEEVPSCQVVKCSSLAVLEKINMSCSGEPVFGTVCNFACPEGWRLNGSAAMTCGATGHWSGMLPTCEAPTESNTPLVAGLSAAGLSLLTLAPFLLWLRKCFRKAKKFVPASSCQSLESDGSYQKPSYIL
The experiment in a line: competition ELISA on CHO cells vs sialyl Lewis ligand, further assays. As for the experimental part: (§1) CHO cells expressing E-selectin were seeded at 12,500 cells per well into a 96 well tissue culture plate and incubated at 37° C., 5% CO₂ for 48 hours to form a confluent monolayer. Plates were subsequently washed twice with 200 μL of calcium magnesium free PBS. Anti-E-selectin antibodies or an IgG1 isotype control (IgG control) were added to the assay in the presence of a small synthetic conjugate of biotinylated, sialyl Lewis A polyacrylamide (Carbosynth LLC, OS45446) or sialyl Lewis X polyacrylamide (Glycotech, 01-045) with streptavidin/horseradish peroxidase (100 μL total) and incubated at 37° C., 5% CO₂ for 2 hours. Plates were then washed twice with 200 μL of calcium and magnesium free PBS. Following the incubation, the cells were washed twice with 200 μL of wash buffer containing 2 mM of calcium chloride (50 mM TRIS [trisaminomethane], 150 mM sodium chloride; 0.05% polysorbate 20, pH 7.4; 2 mM calcium chloride). Signal was developed by adding 100 μL of 1-Step Ultra TMB substrate (Thermo Scientific, 34028) and incubating for 30 minutes at room temperature. Reactions were stopped using 2 M of sulfuric acid and absorbance was read at 450 nm (Spectramax M5e). Data were analyzed and graphed using GraphPad Prism software (Version 8.0.2).
For orientation: ELISA stands for enzyme-linked immunosorbent assay.

For assay [2], the target named is T2, human E-selectin, cell-surface expressed (human, UniProt P16581 22-610).
T2 construct: also called CHO-human E-selectin cells; human CHO-E
T2 sequence: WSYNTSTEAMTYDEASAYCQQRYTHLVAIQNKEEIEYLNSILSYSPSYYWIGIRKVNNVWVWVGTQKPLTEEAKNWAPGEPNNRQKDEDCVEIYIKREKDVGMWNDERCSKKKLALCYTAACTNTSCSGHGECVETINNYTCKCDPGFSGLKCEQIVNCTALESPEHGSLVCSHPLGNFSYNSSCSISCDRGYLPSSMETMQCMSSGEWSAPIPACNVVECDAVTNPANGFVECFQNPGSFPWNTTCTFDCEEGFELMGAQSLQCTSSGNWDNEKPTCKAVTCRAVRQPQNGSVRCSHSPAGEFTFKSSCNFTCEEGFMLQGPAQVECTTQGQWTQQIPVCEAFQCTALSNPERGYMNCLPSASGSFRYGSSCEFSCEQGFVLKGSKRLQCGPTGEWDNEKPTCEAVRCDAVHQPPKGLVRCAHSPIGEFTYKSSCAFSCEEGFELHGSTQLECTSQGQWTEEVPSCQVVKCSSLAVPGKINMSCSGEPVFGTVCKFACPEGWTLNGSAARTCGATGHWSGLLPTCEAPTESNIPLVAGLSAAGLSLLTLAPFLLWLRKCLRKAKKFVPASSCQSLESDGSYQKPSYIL
Described as above. Here is the method:
as §1

Assay [3] has as its target T3, recombinant histidine-tagged human E-selectin (Sino Biologicals; 13025-H08H) (human, UniProt P16581 22-556).
T3 sequence (looked up): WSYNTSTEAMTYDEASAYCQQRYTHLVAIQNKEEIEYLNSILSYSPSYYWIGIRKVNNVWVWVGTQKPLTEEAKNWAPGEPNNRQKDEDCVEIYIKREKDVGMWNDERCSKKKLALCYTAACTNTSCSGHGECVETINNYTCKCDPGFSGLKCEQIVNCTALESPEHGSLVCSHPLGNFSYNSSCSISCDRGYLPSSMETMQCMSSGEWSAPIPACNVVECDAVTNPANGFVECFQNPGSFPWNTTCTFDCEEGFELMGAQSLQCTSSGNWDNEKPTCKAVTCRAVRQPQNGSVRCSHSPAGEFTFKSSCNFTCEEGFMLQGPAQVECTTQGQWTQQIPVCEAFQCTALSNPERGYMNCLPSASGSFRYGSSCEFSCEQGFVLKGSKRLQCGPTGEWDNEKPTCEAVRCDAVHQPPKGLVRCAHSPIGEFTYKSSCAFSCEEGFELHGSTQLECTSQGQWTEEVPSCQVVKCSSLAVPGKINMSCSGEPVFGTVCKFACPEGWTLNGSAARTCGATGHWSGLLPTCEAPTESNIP
Briefly: cell-based or functional assay.

Assay [4] has as its target T1, cynomolgus monkey E-selectin, …. The experiment in a line: flow cytometry, CHO cells, 6 experiments. As for the experimental part:
Binding studies with CHO cells were performed in duplicate using two rows of a 96-well round bottom plate, whereas, binding studies with primary endothelial cells were performed in a single row of a 96-well V-bottom plate. The plates were centrifuged at 300×g for 2 minutes at 4° C. and the cells were resuspended and blocked by incubation in the CHO buffer for 10 minutes on wet ice. After incubation, the cells were centrifuged at 300×g for 2 minutes at 4° C. to remove the buffer. […] After incubation with the antibody, the cells were washed three times by centrifugation at 300×g for 1 minute at 4° C. and resuspended in cold CHO buffer. The washed cells were resuspended and incubated with 100 μL of 1:1000 dilution of AlexaFluor647-conjugated goat anti-human F(ab′)₂ Fragment (Fcγ fragment specific antibody, [Jackson Innnnunoresearch, 109-606-170] for 45 minutes (CHO cells) or 30 minutes (endothelial cells) on wet ice. The cells were washed three or four times prior to resuspension in CHO buffer for flow cytometric analysis. A Becton Dickinson LSRFortessa instrument using 640 nanometer laser line was used to acquire cell fluorescence data. Geometric mean fluorescence of cells was analyzed by FlowJo software package (FlowJo, LLC) and plotted against antibody concentration. […]
(Flow cytometry measures light scatter and fluorescence of single cells or particles in a stream.)

B1: optimized anti-E-selectin antibody 1444 (antibody, human IgG1, kappa, V domains shown)
VH: EVQLVESGGGLVQPGGSLRLSCAASGYAIRSAYMHWVRQAPGKGLEWVARIDPANGNTIYVDSVTGRFTISADNAKNSAYLQMNSLRAEDTAVYYCAMDLYSTSEYWGQGTLVTVSS
VL: DIQMTQSPSSLSASVGDRVTITCKTSQNIERYLNWYQQKPGKAPKLLIYAASSLQSGVPSRFSGSGSGTDFTLTISSLQPEDFATYFCLQDNAWPLTFGQGTKVEIKR
notes: effector-null human IgG1, kappa
The IC50 is the midpoint of a concentration-inhibition curve. For orientation: EC50 means the concentration at which the effect is half-maximal. Regarding B1, in assay [1], the IC50 worked out at 1.49 nM. The same molecule registered an IC50 in assay [2] of 2.33 nM. In assay [3], the “HL-60 cellular adhesion under physiological flow to purified soluble human E-selectin protein, IC50” value was 15.3 nM; the “adhesion of SCD patient blood cells under physiological flow to recombinant E-selectin, IC50 (one donor)” value stood at 6.17 nM; the “adhesion of SCD patient blood cells under physiological flow to recombinant E-selectin, IC50 (other donor)” value was 18.7 nM. In assay [4], this molecule registered an EC50 of 0.75 to 1.37 nM.
